Experimental data taken from IntAct's records for PubMed 19853560.

B1: Phosphatidylinositol 3,4,5-trisphosphate 3-phosphatase and dual-specificity protein phosphatase daf-18 (Caenorhabditis elegans), G5EE01 (parent)
chain: MVTPPPDVPSTSTRSMARDLQENPNRQPGEPRVSEPYHNSIVERIRHIFRTAVSSNRCRTEYQNIDLDCAYITDRIIAIGYPATGIEANFRNSKVQTQQFLTRRHGKGNVKVFNLRGGYYYDADNFDGNVICFDMTDHHPPSLELMAPFCREAKEWLEADDKHVIAVHCKAGKGRTGVMICALLIYINFYPSPRQILDYYSIIRTKNNKGVTIPSQRRYIYYYHKLRERELNYLPLRMQLIGVYVERPPKTWGGGSKIKVEVGNGSTILFKPDPLIISKSNHQRERATWLNNCDTPNEFDTGEQKYHGFVSKRAYCFMVPEDAPVFVEGDVRIDIREIGFLKKFSDGKIGHVWFNTMFACDGGLNGGHFEYVDKTQPYIGDDTSIGRKNGMRRNETPMRKIDPETGNEFESPWQIVNPPGLEKHITEEQAMENYTNYGMIPPRYTISKILHEKHEKGIVKDDYNDRKLPMGDKSYTESGKSGDIRGVGGPFEIPYKAEEHVLTFPVYEMDRALKSKDLNNGMKLHVVLRCVDTRDSKMMEKSEVFGNLAFHNESTRRLQALTQMNPKWRPEPCAFGSKGAEMHYPPSVRYSSNDGKYNGACSENLVSDFFEHRNIAVLNRYCRYFYKQRSTSRSRYPRKFRYCPLIKKHFYIPADTDDVDENGQPFFHSPEHYIKEQEKIDAEKAAKGIENTGPSTSGSSAPGTIKKTEASQSDKVKPATEDELPPARLPDNVRRFPVVGVDFENPEEESCEHKTVESIAGFEPLEHLFHESYHPNTAGNMLRQDYHTDSEVKIAEQEAKAFVDQLLNGQGVLQEFMKQFKVPSDNSFADYVTGQAEVFKAQIALLEQSEDFQRVQANAEEVDLEHTLGEAFERFGHVVEESNGSSKNPKALKTREQMVKETGKDTQKTRNHVLLHLEANHRVQIERRETCPELHPEDKIPRIAHFSENSFSDSNFDQAIYL
partner: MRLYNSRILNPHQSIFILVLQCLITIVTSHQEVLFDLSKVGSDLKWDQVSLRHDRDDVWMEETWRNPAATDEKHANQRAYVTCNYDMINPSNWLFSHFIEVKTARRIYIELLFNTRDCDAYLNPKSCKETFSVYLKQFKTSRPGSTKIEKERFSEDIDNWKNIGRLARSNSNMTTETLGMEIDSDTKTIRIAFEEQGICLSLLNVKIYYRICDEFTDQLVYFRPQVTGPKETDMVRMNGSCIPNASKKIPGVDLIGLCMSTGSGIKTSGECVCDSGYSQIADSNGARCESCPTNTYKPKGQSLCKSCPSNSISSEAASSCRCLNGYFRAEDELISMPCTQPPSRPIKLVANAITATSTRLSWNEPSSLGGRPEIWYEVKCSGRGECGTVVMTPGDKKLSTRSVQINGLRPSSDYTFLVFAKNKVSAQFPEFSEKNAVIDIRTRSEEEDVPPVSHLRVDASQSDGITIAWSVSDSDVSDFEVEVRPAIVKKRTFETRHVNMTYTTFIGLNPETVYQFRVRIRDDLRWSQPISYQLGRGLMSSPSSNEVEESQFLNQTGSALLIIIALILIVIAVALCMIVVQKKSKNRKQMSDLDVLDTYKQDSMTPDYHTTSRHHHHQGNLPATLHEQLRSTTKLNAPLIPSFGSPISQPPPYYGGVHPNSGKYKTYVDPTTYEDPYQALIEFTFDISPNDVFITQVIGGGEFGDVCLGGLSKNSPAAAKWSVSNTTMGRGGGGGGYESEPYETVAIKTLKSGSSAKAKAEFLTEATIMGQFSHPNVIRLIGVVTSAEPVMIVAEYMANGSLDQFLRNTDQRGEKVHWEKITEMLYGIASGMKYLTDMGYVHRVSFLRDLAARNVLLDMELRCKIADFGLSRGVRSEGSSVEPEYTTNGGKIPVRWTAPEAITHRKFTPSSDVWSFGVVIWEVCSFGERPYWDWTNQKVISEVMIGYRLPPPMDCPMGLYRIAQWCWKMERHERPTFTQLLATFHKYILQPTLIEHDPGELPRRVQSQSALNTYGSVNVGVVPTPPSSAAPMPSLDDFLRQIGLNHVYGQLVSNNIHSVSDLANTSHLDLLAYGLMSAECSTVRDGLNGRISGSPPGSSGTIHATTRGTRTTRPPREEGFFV

Variants of: B1
Settings: with vab1_caeel vab-1, O61460

Row | Variant | effect of a mutation on the interaction
1 | D137A | increasing interaction
